Measurements as given in patent WO2011147762A2.

Tests used:
[1] = target: ED-B fibronectin antigen protein (recombinant), bound to CNBr activated sepharose 4B (UniProt P02751); assay: ED-B sepharose column, % of total radioactivity bound; Study A; trolox 5 mg/mL; day 3
[2] = target: ED-B fibronectin antigen protein (recombinant), bound to CNBr activated sepharose 4B (UniProt P02751); assay: ED-B sepharose column, % of total radioactivity bound; Study A; maltose 10 mg/mL; day 5
[3] = target: ED-B fibronectin antigen protein (recombinant), bound to CNBr activated sepharose 4B (UniProt P02751); assay: ED-B sepharose column, % of total radioactivity bound; Study A; maltose 25 mg/mL; day 7
[4] = target: ED-B fibronectin antigen protein (recombinant), bound to CNBr activated sepharose 4B (UniProt P02751); assay: ED-B sepharose column, % of total radioactivity bound; Study A; maltose 50 mg/mL; day 5
[5] = target: ED-B fibronectin antigen protein (recombinant), bound to CNBr activated sepharose 4B (UniProt P02751); assay: ED-B sepharose column, % of total radioactivity bound; Study A; maltose 50 mg/mL; day 7
[6] = target: ED-B fibronectin antigen protein (recombinant), bound to CNBr activated sepharose 4B (UniProt P02751); assay: ED-B sepharose column, % of total radioactivity bound; Study A; inositol 5 mg/mL; day 0
[7] = target: ED-B fibronectin antigen protein (recombinant), bound to CNBr activated sepharose 4B (UniProt P02751); assay: ED-B sepharose column, % of total radioactivity bound; Study A; inositol 5 mg/mL; day 5
[8] = target: ED-B fibronectin antigen protein (recombinant), bound to CNBr activated sepharose 4B (UniProt P02751); assay: ED-B sepharose column, % of total radioactivity bound; Study A; inositol 10 mg/mL; day 7
[9] = target: ED-B fibronectin antigen protein (recombinant), bound to CNBr activated sepharose 4B (UniProt P02751); assay: ED-B sepharose column, % of total radioactivity bound; Study A; inositol 25 mg/mL; day 3
[10] = target: ED-B fibronectin antigen protein (recombinant), bound to CNBr activated sepharose 4B (UniProt P02751); assay: ED-B sepharose column, % of total radioactivity bound; Study A; methionine 5 mg/mL; day 1
[11] = target: ED-B fibronectin antigen protein (recombinant), bound to CNBr activated sepharose 4B (UniProt P02751); assay: ED-B sepharose column, % of total radioactivity bound; Study B3; inositol 10 mg/mL; day 2
[12] = target: ED-B fibronectin antigen protein (recombinant), bound to CNBr activated sepharose 4B (UniProt P02751); assay: ED-B sepharose column, % of total radioactivity bound; Study B3; inositol 10 mg/mL; day 3
[13] = target: ED-B fibronectin antigen protein (recombinant), bound to CNBr activated sepharose 4B (UniProt P02751); assay: ED-B sepharose column, % of total radioactivity bound; Study B3; inositol 10 mg/mL; day 5
[14] = target: ED-B fibronectin antigen protein (recombinant), bound to CNBr activated sepharose 4B (UniProt P02751); assay: ED-B sepharose column, % of total radioactivity bound; Study A; methionine 10 mg/mL; day 0
[15] = target: ED-B fibronectin antigen protein (recombinant), bound to CNBr activated sepharose 4B (UniProt P02751); assay: ED-B sepharose column, % of total radioactivity bound; Study A; methionine 10 mg/mL; day 3
[16] = target: ED-B fibronectin antigen protein (recombinant), bound to CNBr activated sepharose 4B (UniProt P02751); assay: ED-B sepharose column, % of total radioactivity bound; Study A; methionine 10 mg/mL; day 7
[17] = target: ED-B fibronectin antigen protein (recombinant), bound to CNBr activated sepharose 4B (UniProt P02751); assay: ED-B sepharose column, % of total radioactivity bound; Study A; methionine 25 mg/mL; day 1
[18] = target: ED-B fibronectin antigen protein (recombinant), bound to CNBr activated sepharose 4B (UniProt P02751); assay: ED-B sepharose column, % of total radioactivity bound; Study B3; thioglycerol 10 mg/mL; day 0
[19] = target: ED-B fibronectin antigen protein (recombinant), bound to CNBr activated sepharose 4B (UniProt P02751); assay: ED-B sepharose column, % of total radioactivity bound; Study B3; thioglycerol 10 mg/mL; day 2
[20] = target: ED-B fibronectin antigen protein (recombinant), bound to CNBr activated sepharose 4B (UniProt P02751); assay: ED-B sepharose column, % of total radioactivity bound; Study B3; thioglycerol 10 mg/mL; day 5
[21] = target: ED-B fibronectin antigen protein (recombinant), bound to CNBr activated sepharose 4B (UniProt P02751); assay: ED-B sepharose column, % of total radioactivity bound; Study A; sodium thiosulfate 10 mg/mL; day 5
[22] = target: ED-B fibronectin antigen protein (recombinant), bound to CNBr activated sepharose 4B (UniProt P02751); assay: ED-B sepharose column, % of total radioactivity bound; Study A; sodium thiosulfate 25 mg/mL; day 1
[23] = target: ED-B fibronectin antigen protein (recombinant), bound to CNBr activated sepharose 4B (UniProt P02751); assay: ED-B sepharose column, % of total radioactivity bound; Study A; sodium thiosulfate 25 mg/mL; day 7
[24] = target: ED-B fibronectin antigen protein (recombinant), bound to CNBr activated sepharose 4B (UniProt P02751); assay: ED-B sepharose column, % of total radioactivity bound; Study A; sodium thiosulfate 50 mg/mL; day 1
[25] = target: ED-B fibronectin antigen protein (recombinant), bound to CNBr activated sepharose 4B (UniProt P02751); assay: ED-B sepharose column, % of total radioactivity bound; Study B3; no-excipient control (PBS); day 2
[26] = target: ED-B fibronectin antigen protein (recombinant), bound to CNBr activated sepharose 4B (UniProt P02751); assay: ED-B sepharose column, % of total radioactivity bound; Study B3; no-excipient control (PBS); day 3
[27] = target: ED-B fibronectin antigen protein (recombinant), bound to CNBr activated sepharose 4B (UniProt P02751); assay: ED-B sepharose column, % of total radioactivity bound; Study A; no-excipient control (saline); day 3
[28] = target: ED-B fibronectin antigen protein (recombinant), bound to CNBr activated sepharose 4B (UniProt P02751); assay: ED-B sepharose column, % of total radioactivity bound; Study B3; human serum albumin 10 mg/mL; day 7

Sequence of 131I L19-SIP (radioiodinated L19 SIP homodimer) (chain): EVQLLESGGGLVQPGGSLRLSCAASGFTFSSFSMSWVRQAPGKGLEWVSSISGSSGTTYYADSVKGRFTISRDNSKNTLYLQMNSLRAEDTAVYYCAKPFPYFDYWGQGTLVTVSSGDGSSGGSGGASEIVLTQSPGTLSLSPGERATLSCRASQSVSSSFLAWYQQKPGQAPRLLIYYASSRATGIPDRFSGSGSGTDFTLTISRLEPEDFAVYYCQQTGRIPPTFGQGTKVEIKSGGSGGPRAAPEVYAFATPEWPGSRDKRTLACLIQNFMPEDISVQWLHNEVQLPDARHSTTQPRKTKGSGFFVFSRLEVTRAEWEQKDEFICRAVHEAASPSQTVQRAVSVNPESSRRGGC
Sequence of 131I L19-SIP (radioiodinated L19 SIP homodimer) (chain): as above
Sequence of UniProt P02751 (P02751 1266-1356 limits assumed): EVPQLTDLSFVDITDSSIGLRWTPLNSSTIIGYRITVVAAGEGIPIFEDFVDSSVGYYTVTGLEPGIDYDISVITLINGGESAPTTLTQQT

131I L19-SIP (radioiodinated L19 SIP homodimer)
Immunoreactivity (%) [1]: 77.6%
Immunoreactivity (%) [2]: 57.2%
Immunoreactivity (%) [3]: 53.6%
Immunoreactivity (%) [4]: 55.6%
Immunoreactivity (%) [5]: 50.7%
Immunoreactivity (%) [6]: 94.8%
Immunoreactivity (%) [7]: 56.2%
Immunoreactivity (%) [8]: 60.7%
Immunoreactivity (%) [9]: 68.5%
Immunoreactivity (%) [10]: 88%
Immunoreactivity (IR) (%) [11]: 68.8%
Immunoreactivity (IR) (%) [12]: 74.8%
Immunoreactivity (IR) (%) [13]: 61.2%
Immunoreactivity (%) [14]: 96.6%
Immunoreactivity (%) [15]: 75.7%
Immunoreactivity (%) [16]: 54.8%
Immunoreactivity (%) [17]: 89.6%
Immunoreactivity (IR) (%) [18]: 80.1%
Immunoreactivity (IR) (%) [19]: 58.4%
Immunoreactivity (IR) (%) [20]: 46.8%
Immunoreactivity (%) [21]: 81.3%
Immunoreactivity (%) [22]: 95%
Immunoreactivity (%) [23]: 78.5%
Immunoreactivity (%) [24]: 96.9%
Immunoreactivity (IR) (%) [25]: 71.3%
Immunoreactivity (IR) (%) [26]: 68.3%
Immunoreactivity (%) [27]: 59.8%
Immunoreactivity (IR) (%) [28]: 39.8%
